In US20240117030A1 (Pfizer, published 2024):
Where a chain is given by its changes, count along the chain named.

What was measured:
human IL-13 [1] = target: T1, human IL-13 (human, UniProt P35225 35-146); assay: cell-based or functional assay
human IL-13 [2] = target: T1, human IL-13; assay: SPR 37°C, antibody captured by anti-human IgG, human IL-13 1.56-50 nM
Procedure: The affinity values (KD) were determined using Surface Plasmon Resonance (SPR) for 10 lead variants identified from bioassay screening.

human IL-13 [3] = target: T1, human IL-13; assay: cell-based or functional assay; remark: listed apart in the source
mouse IL-13 [4] = target: T2, mouse IL-13 (mouse, UniProt P20109 26-131, limits assumed); assay: ELISA: competition with biotinylated human IL-13 for binding to IL13-0001
T2 construct: also called mu IL-13
T2 sequence (looked up): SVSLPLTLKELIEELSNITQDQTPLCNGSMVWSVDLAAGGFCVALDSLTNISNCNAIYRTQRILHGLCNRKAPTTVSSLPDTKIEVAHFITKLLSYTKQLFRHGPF
Source text: (§1) Recombinant human, mouse, rat, and dog IL 13 were purchased from R&D Systems (Minneapolis, MN). Recombinant sheep and rabbit IL-13 were produced by Pfizer Global Biotechnologies (PGBT, Cambridge, MA). Recombinant cynomolgus monkey IL 13 was purchased from Sino Biological (Beijing, China).

cynomolgus monkey IL-13 [5] = target: T3, cynomolgus monkey IL-13 (cynomolgus monkey, UniProt Q0PW92 19-132); assay: as above
T3 construct: also called cy IL-13; cyno IL-13; not shown: N-terminal FLAG tag of the Pfizer-made protein

dog IL-13 = target: T4, dog IL-13 (dog, UniProt Q9N0W9 19-131, limits assumed); assay: as above
T4 sequence (looked up): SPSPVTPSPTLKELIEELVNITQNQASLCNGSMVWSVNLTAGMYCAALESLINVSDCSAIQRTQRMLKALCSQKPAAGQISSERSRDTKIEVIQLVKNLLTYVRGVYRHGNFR
Source text: as §1

mouse IL-13 [6] = target: T2, mouse IL-13; assay: SPR (Biacore 8K+), trispecific captured on anti-human Fc on a CM5 chip, 200 nM IL-13 injected for 60 s
Procedure: (§2) All experiments were performed using a Biacore 8K+ instrument (GE HealthCare, Marlborough, MA). Anti-human Fc (Jackson Immunoresearch) or anti-mouse Fc (GE HealthCare, Marlborough, MA) was immobilized on a CM5 sensor chip using a standard amine coupling protocol provided by GE HealthCare. […] The association and dissociation phases were 60 seconds and 300 seconds, respectively. At the end of the dissociation phase, the surface containing anti-human or anti-mouse Fc was regenerated using one 30 second pulse of 3M MgCl₂ followed by one 30 second pulse of 10 mM glycine pH 1.7.

rat IL-13 = target: T5, rat IL-13 (rat, UniProt P42203 19-131, limits assumed); assay: as above
T5 construct: also called rt IL-13
T5 sequence (looked up): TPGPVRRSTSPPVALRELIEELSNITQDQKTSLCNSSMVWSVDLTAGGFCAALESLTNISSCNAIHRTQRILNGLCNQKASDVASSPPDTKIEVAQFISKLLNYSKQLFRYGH
Procedure: as §2

murine IL-33 = target: T6, murine IL-33 (mouse, UniProt Q8BVZ5 109-266); assay: SPR (Biacore T-200, 37 C, buffer with 3 mM DTT), trispecific captured on Protein A/G on a CM5 chip, 200 nM IL-33 injected for 60 s (concentration from Example 75)
T6 construct: also called mouse IL-33 WT
T6 sequence (looked up): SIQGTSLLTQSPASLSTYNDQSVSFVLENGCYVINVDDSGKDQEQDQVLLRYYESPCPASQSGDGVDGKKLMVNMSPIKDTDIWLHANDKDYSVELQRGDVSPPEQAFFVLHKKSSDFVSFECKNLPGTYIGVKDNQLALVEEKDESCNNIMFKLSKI
Procedure: (§3) Experiments were done at 37° C. with a collection rate of 10 Hz using HBS-EP+ pH 7.4, containing 3 mM DTT as running and dilution buffer. […] An anti-rat and mouse positive control antibody M36 (Pfizer, L4295010-051) diluted to 10 μgs/mL was captured on flow cell 2 for 60 sec at 10 μLs/min. Flow cell 1 was used as a reference. Binding was evaluated by injecting 200 nM dilutions of each cytokine over all 4 flow cells for 60 sec at 50 μL/min followed by a 300 sec dissociation. The surface was regenerated with a single 60 sec injection of 10 mM Glycine pH 1.5 at 50 μL/min. The data was double referenced and an overlay of the resulting sensorgrams (FIG. 39) was prepared using Biacore T-200 Analysis Software version 3.2.

rat IL-33 = target: T7, rat IL-33 (rat, UniProt Q66H70 109-264, limits assumed); assay: as above
T7 construct: also called rat IL-33 WT
T7 sequence (looked up): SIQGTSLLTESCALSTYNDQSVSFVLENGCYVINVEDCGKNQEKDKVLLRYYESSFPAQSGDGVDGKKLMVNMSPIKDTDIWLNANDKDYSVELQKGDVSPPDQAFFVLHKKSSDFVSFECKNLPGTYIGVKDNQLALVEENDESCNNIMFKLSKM
Procedure: as §3

cynomolgus monkey IL-13 [7] = target: T3, cynomolgus monkey IL-13; assay: cell-based or functional assay
human IL-13 [8] = target: T1, human IL-13; assay: cell-based or functional assay; remark: listed apart in the source
human IL-4 = target: T8, human IL-4 (human, UniProt P05112 25-153); assay: cell-based or functional assay
T8 sequence (looked up): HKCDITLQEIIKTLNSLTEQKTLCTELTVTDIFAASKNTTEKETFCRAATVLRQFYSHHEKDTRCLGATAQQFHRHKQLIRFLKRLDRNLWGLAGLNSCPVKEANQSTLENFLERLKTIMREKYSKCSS

cynomolgus monkey IL-13 [9] = target: T3, cynomolgus monkey IL-13; assay: KinExA, fixed antigen
Procedure: (§4) Samples were prepared in PBS containing 0.1% sodium azide and 1.0 mg/ml BSA. The fixed antigen assay method was used to determine binding affinity. […] Each trispecific and IL-4 cytokine were equilibrated for at least 72 hours at room temperature, then passed through a flow cell containing Polymethylmethacrylate (PMMA) beads coated with anti-hIL-4 Ab-0002 (Pfizer) that contains the same IL-4 binding domain as the trispecifics. […] Data analysis was performed with KinExA Pro software version 4.3.11 (Sapidyne). […] The ‘drift correction’ fitting option was used when responses varied between replicate injections. Two curves were obtained in independent experiments and analyzed using the ‘n-curve analysis’ tool to obtain global best fit values for the KD and active concentration of IL-4 cytokine. The software reports each best fit value along with a 95% confidence interval.
(§5) Samples were prepared in PBS containing 0.1% sodium azide and 1.0 mg/ml BSA. A fixed antigen assay method was used to determine binding affinity.

cynomolgus monkey IL-4 = target: T9, cynomolgus monkey IL-4 (cynomolgus monkey, UniProt P79339 25-153); assay: KinExA, fixed antigen
T9 construct: mature; also called cy IL-4; cyno IL-4
T9 sequence (looked up): T8 sequence (looked up) with E26K, V29I, F33L
Procedure: as §4, §5

mouse IL-4 = target: T10, mouse IL-4 (mouse, UniProt P07750 23-140); assay: SPR (Biacore 8K+), trispecific captured on anti-human Fc on a CM5 chip, 200 nM IL-4 injected for 60 s
T10 construct: also called mu IL-4
T10 sequence (looked up): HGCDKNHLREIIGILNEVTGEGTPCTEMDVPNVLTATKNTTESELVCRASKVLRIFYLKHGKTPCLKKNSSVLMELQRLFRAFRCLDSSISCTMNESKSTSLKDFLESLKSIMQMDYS
Procedure: (§6) All experiments were performed using a Biacore 8K+instrument (GE HealthCare, Marlborough, MA). Anti-human Fc (Jackson Immunoresearch) or anti-mouse Fc (GE HealthCare, Marlborough, MA) was immobilized on a CM5 sensor chip using a standard amine coupling protocol provided by GE HealthCare. […] The association and dissociation phases were 60 seconds and 300 seconds, respectively. At the end of the dissociation phase, the surface containing anti-human or anti-mouse Fc was regenerated using one 30 second pulse of 3M MgCl₂ followed by one 30 second pulse of 10 mM glycine pH 1.7.

rat IL-4 = target: T11, rat IL-4 (rat, UniProt P20096 25-147, limits assumed); assay: as above
T11 construct: also called rt IL-4
T11 sequence (looked up): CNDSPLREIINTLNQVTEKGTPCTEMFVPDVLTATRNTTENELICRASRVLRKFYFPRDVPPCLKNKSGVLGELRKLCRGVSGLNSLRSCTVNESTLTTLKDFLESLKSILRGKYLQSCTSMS
Procedure: as §6

[10] = target: T12, biotinylated human TSLP (Pfizer) (human, UniProt Q969D9 29-159, biotinylated (Avi tag by Example 2)); assay: KinExA, fixed antigen format, solution affinity, mean
T12 construct: Antigen of the KinExA fixed antigen assay
Procedure: (§7) Samples were prepared in PBS containing 0.1% sodium azide and 1.0 mg/ml BSA. A fixed antigen assay method was used to determine binding affinity. […] Data analysis was performed with the KinExA Pro software version 4.3.11 (Sapidyne). […] The ‘drift correction’ option was selected when responses varied between replicate injections. Two curves were obtained in independent experiments and analyzed using the ‘n-curve analysis’ tool to obtain global best fit values for the KD and active concentration of biotinylated TSLP. The software reports each best fit value along with a 95% confidence interval).

[11] = target: T13, biotinylated cynomolgus monkey TSLP (Pfizer) (cynomolgus monkey, UniProt A0A7N9CAT7 29-159, biotinylated (Avi tag by Example 2)); assay: as above
T13 construct: Antigen of the KinExA fixed antigen assay
Procedure: as §7

[12] = target: recombinant cynomolgus monkey TSLP (Pfizer) (cynomolgus monkey, UniProt A0A7N9CAT7 29-159); assay: cell-based or functional assay
Chain of recombinant cynomolgus monkey TSLP (Pfizer) (A0A7N9CAT7 entry or part of it): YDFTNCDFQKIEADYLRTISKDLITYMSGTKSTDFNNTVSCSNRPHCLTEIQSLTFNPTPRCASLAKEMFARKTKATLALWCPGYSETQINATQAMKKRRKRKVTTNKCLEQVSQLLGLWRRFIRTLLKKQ

T3 sequence (Q0PW92 entry or part of it limits assumed): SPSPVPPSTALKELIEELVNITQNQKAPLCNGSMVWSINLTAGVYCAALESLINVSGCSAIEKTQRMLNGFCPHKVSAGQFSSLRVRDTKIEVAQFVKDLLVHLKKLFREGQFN
T1 sequence (P35225 35-146 limits assumed, form in doubt): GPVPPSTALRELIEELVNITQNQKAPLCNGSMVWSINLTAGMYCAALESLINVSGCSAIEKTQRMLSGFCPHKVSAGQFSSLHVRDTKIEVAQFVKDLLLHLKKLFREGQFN
T13 sequence (A0A7N9CAT7 entry or part of it): as the sequence (A0A7N9CAT7 entry or part of it) above

B1: IL13-0001 (antibody, human IgG1, kappa, V domains shown)
VH: EVQLVESGGGLVQPGGSLRLSCAASGFTFSSYAMSWVRQAPGKGLEWVASISSGDTTYYPDSVKGRFTISRDNAKNSLYLQMNSLRAEDTAVYYCARNEGYYFGLTLWGQGTLVTVSS
VL: DIQMTQSPSSLSASVGDRVTITCKASESVDHFGWSLVHWYQQKPGKAPKLLIYRASNLESGVPSRFSGSGSGTDFTLTISSLQPEDFATYYCQQSNEDPWTFGGGTKVEIKR
notes: also called IL13433-0001; 1RVHC9-VLA4
With B1 the “CD23: Fold versus IL13-0001” value (human IL-13 [1]) was 1 fold, the “CD23 IC50 [pM] Ave. n = 2” value (human IL-13 [1]) was 6 pM and the Kd (human IL-13 [2]) was 0.0577 nM. The “CD23: Fold bioactivity relative to IL13-0001” value (human IL-13 [3]) was 1 fold, the “CD23: Fold bioactivity relative to IL13-1307” value (human IL-13 [3]) was 29.1 fold and the “CD23 IC50 [pM]” value (human IL-13 [3]) was 10.5 pM. The “pSTAT6: Fold bioactivity relative to IL13-0001” value (human IL-13 [3]) was 1 fold, the “pSTAT6: Fold bioactivity relative to IL13-1307” value (human IL-13 [3]) was 1.5 fold and the “pSTAT6 IC50 [pM]” value (human IL-13 [3]) was 92 pM. B1: no binding (mouse IL-13 [4]); binds (cynomolgus monkey IL-13 [5]); no binding (dog IL-13).

B2: IL13433-1258 (trispecific antibody)
heavy: EVQLVESGGGLVQPGGSLRLSCAASGFTFSSYWMYWVRQAPGKGLEWVAAITPNAGEDYYPESVKGRFTISRDNAKNSLYLQMNSLRAEDTAVYYCARGQYYYTKYSLGYWGQGTLVTVSSASTKGPSVFPLAPSSKSTSGGTAALGCLVKDYFPEPVTVSWNSGALTSGVHTFPAVLQSSGLYSLSSVVTVPSSSLGTQTYICNVNHKPSNTKVDKKVEPKSCRKTHTCPPCPAPEAAGAPSVFLFPPKPKDTLMISRTPEVTCVVVDVSHEDPEVKFNWYVDGVEVHNAKTKPREEQYNSTYRVVSVLTVLHQDWLNGKEYKCKVSNKALPAPIEKTISKAKGQPREPQVYTLPPSREEMTKNQVSLTCLVKGFYPSDIAVEWESNGQPENNYKTTPPVLDSDGSFFLYSRLTVDKSRWQQGNVFSCSVLHEALHSHYTQKSLSLSPGK
chain 1: DIQMTQSPSSLSASVGDRVTITCKASESVDHFGWSLVHWYQQKPGKAPKLLIYRASNLESGVPSRFSGSGSGTDFTLTISSLQPEDFATYYCQQSNEDPWTFGGGTKVEIKRTVAAPSVFIFPPSDEQLKSGTASVVCLLNNFYPREAKVQWKVDNALQSGNSQESVTEQDSKDSTYSLSSTLTLSKADYEKHKVYACEVTHQGLSSPVTKSFNRGECGGGGSEVTLRESGPALVKPTQTLTLTCTFSGFSLSNFGEGLSWIRQPPGKGLEWLAHIYWDDDKRYNPSLKSRLTISKDTSRNQVVLTMTNMDPVDTATYYCARRETVFYWYFDVWGQGTTVTVSSASTKGPSVFPLAPSSKSTSGGTAALGCLVKDYFPEPVTVSWNSGALTSGVHTFPAVLQSSGLYSLSSVVTVPSSSLGTQTYICNVNHKPSNTKVDKKVEPKSCEKTHTCPPCPAPEAAGAPSVFLFPPKPKDTLMISRTPEVTCVVVDVSHEDPEVKFNWYVDGVEVHNAKTKPREEQYNSTYRVVSVLTVLHQDWLNGKEYKCKVSNKALPAPIEKTISKAKGQPREPQVYTLPPSREEMTKNQVSLTCEVKGFYPSDIAVEWESNGQPENNYKTTPPVLDSDGSFFLYSKLTVDKSRWQQGNVFSCSVLHEALHSHYTQKSLSLSPGK
light 1: DIQMTQSPSSLSASVGDRVTITCRASQPIHNHLDWYQQKPGKAPKLLIYFGKNLQEGVPSRFSGSGSGTDFTLTISSLQPEDFATYYCFQYKKGWSFGGGTKVEIKRTVAAPSVFIFPPSDEQLKSGTASVVCLLNNFYPREAKVQWKVDNALQSGNSQESVTEQDSKDSTYSLSSTLTLSKADYEKHKVYACEVTHQGLSSPVTKSFNRGEC
light 2: DIQMTQSPSSLSASVGDRVTITCRASQSVDEEGDSYMNWYQQKPGKAPKLLIYAASNLESGVPSRFSGSGSGTDFTLTISSLQPEDFATYYCQQSNKDPPTFGGGTKVEIKRTVAAPSVFIFPPSDEQLKSGTASVVCLLNNFYPREAKVQWKVDNALQSGNSQESVTEQDSKDSTYSLSSTLTLSKADYEKHKVYACEVTHQGLSSPVTKSFNRGEC
chain 2: EVQLVESGGGLVQPGGSLRLSCAASGFTFSSYAMSWVRQAPGKGLEWVASISSGDTTYYPDSVKGRFTISRDNAKNSLYLQMNSLRAEDTAVYYCARNEGYYFGLTLWGQGTLVTVSSASTKGPSVFPLAPSSKSTSGGTAALGCLVKDYFPEPVTVSWNSGALTSGVHTFPAVLQSSGLYSLSSVVTVPSSSLGTQTYICNVNHKPSNTKVDKKVEPKSC
notes: Tri-Fab-Fc: SFab HC(3) IL-33, DFab LC(1)-HC(2) IL-13/IL-4, SFab LC(3), DFab LC(2), modified Fd(1); EE/RR, LS
B2: no binding (tested: 200 nM) (mouse IL-13 [6]); no binding (tested: 200 nM) (rat IL-13); no binding (tested: 200 nM) (murine IL-33). For the same binder, the binding result (rat IL-33) was “no binding (tested: 200 nM)”, the “fold reduced neutralization compared to the human cytokine (monocyte CD23 bioassay)” value (cynomolgus monkey IL-13 [7]) was ~4.5 fold and the “fold IL-13 neutralization activity over dupilumab (monocyte CD23 bioassay)” value (human IL-13 [8]) was 7.9 fold. The “fold lower potency than IL13-0001 (monocyte CD23 bioassay)” value (human IL-13 [8]) was ~2.7 fold, the “fold IL-4 neutralization activity over dupilumab (monocyte CD23 bioassay)” value (human IL-4) was ~10 fold and the “fold lower potency than mAb IL4-1040 (monocyte CD23 bioassay)” value (human IL-4) was ~3.1 fold. The “fold of the human IL-13 affinity value” (cynomolgus monkey IL-13 [9]) was ≤ 2 fold, the “fold weaker than the human IL-4 affinity value” (cynomolgus monkey IL-4) was ~6.2 fold and the binding result (mouse IL-4) was “no binding (tested: 200 nM)”. B2: no binding (tested: 200 nM) (rat IL-4).

B3: IL413TSLP-1024 (antibody)
heavy: not shown
light 1: SYVLTQPPSVSVAPGQTARITCGGNNLGSKSVHWYQQKPGQAPVLVVYDDKDRPSWIPERFSGSNSGNTATLTISRGEAGDEADYYCQVWDSKSDHVVFGGGTKLTVLGQPKAAPSVTLFPPSSEELQANKATLVCLISDFYPGAVTVAWKADSSPVKAGVETTTPSKQSNNKYAASSYLSLTPEQWKSHRSYSCQVTHEGSTVEKTVAPTECS
chain 1: B2 chain 1
light 2: B2 light 2
chain 2: B2 chain 2
notes: RR-EE, LS; monovalent for TSLP
For B3, the Kd [10] was 0.00303 nM, the Kd [11] was 0.00631 nM and the “IC50, TARC production bioassay, Human Whole Blood (median)” value [12] was 0.0327 nM. The “IC50, TARC production bioassay, Peripheral Blood Monocytes (median)” value [12] was 0.03 nM.
